Results on 7 molecules are retold here after patent US20090022738A1 (MICROMET, published 2009).

Where only a bound is given, the exact number is not on record here.

Assay [1] has as its target T1, human CD3 (human, UniProt P07766 23-207; P04234 22-171; P09693 23-182).
T1 construct: whole, on cells; also called CD3 antigen; human CD3 complex
Nature of the assay: FACS on CD3-enriched PBMCs.

In assay [2] the target is T1, human CD3. Nature of the assay: FACS, second experiment, crude supernatant on CD3-enriched PBMCs. On the procedure:
(§1) In order to analyze the binding efficacy of the deimmunized constructs to CD3 and CD19 a FACS-based assay was performed. Initially, crude supernatants were tested for binding on CD3-enriched PBMCs or CD19-positive NALM-6 cells. Cells were incubated with non-diluted supernatants for 30 minutes at 8° C. Upon two wash steps the cells were labeled with an anti-His antibody (Qiagen) under the same conditions. After additional wash steps binding of the constructs was detected with a FITC-conjugated sheep anti-mouse antibody (Sigma). Cells were analyzed with a FACS Calibur cytometer (B&D). As controls supernatants of anti-CD19×anti-CD3 and GFP-transfected cells were included. […] The positive control, which was a non-deimmunized anti-CD19×anti-CD3 construct reached a MFI of around 60 showing that the deimmunized constructs comprising anti-CD3 (VH5/VL1) (SEQ ID NO.:190), anti-CD3 (VH5/VL2) (SEQ ID NO.:192), anti-CD3 (VH5/VL3) (SEQ ID NO.:194), anti-CD3 (VH7/VL1) (SEQ ID NO.:196), anti-CD3 (VH7/VL2) (SEQ ID NO.:198) and anti-CD3 (VH7/VL3) (SEQ ID NO.:200) bound CD3 with extremely high efficacy.
A general note: A flow cytometer gives signals particle by particle.

Assay [3] addresses T2, CD19 (human, UniProt P15391 20-556).
T2 construct: whole, on cells; also called CD19 on NALM-6 cells
T2 sequence (looked up): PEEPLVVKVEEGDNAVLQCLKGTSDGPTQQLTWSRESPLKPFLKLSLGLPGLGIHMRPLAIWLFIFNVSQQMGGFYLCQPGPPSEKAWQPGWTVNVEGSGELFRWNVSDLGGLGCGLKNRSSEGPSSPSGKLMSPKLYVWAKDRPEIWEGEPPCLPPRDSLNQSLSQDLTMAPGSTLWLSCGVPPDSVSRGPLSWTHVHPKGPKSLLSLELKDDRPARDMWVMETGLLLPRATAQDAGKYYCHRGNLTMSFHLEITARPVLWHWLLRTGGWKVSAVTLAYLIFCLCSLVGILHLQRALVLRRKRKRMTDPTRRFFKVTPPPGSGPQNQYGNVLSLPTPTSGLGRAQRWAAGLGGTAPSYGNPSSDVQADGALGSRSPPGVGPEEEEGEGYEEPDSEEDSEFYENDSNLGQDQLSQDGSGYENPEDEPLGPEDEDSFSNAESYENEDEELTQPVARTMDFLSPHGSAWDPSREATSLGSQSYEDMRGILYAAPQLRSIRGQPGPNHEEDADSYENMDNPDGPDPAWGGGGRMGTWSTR
Nature of the assay: FACS, crude supernatant on CD19-positive NALM-6 cells; negative control MFI ca. 3. Here is the method: as §1
The FACS-based binding assay was also carried out for CD19. In this experiment CD19 and a secondary antibody was as a negative control. In this experiment, all assayed constructs achieved a MFI of at least 80 while the MFI of the negative control was ca. 3.

The target of assay [4] is T1, human CD3. Put plainly: FACS, non-diluted crude supernatant on CD3-enriched PBMCs; anti-His + FITC anti-mouse. On the procedure: as §1

B1: anti-CD19×anti-CD3 (VH2/VL2) (SEQ ID NO.:180) (bispecific antibody)
chain: DIQLTQSPASLAVSLGQRATISCKASQSVDYDGDSYLNWYQQIPGQPPKLLIYDASNLVSGIPPRFSGSGSGTDFTLNIHPVEKVDAATYHCQQSTEDPWTFGGGTKLEIKGGGGSGGGGSGGGGSQVQLQQSGAELVRPGSSVKISCKASGYAFSSYWMNWVKQRPGQGLEWIGQIWPGDGDTNYNGKFKGKATLTADESSSTAYMQLSSLASEDSAVYFCARRETTTVGRYYYAMDYWGQGTTVTVSSGGGGSDVQLVQSGAEVKKPGASVKVSCKASGYTATRYTMHWVRQAPGQGLEWIGYINPSRGYTNYAQKLQGRVTMTTDTSTSTAYMELSSLRSEDTATYYCARYYDDHYCLDYWGQGTTVTVSSGEGTSTGSGGSGGSGGADDIVLTQSPATLSLSPGERATLSCRASQSVSYMNWYQQKPGKAPKRWIYDTSKVASGVPARFSGSGSGTDYSLTINSLEAEDAATYYCQQWSSNPLTFGGGTKVEIK
notes: As m4: bispecific single chain, His-tagged; also called pEF anti-CD19×anti-CD3 (VH2/VL2)
In the case of B1, in assay [1], the binding result was “no binding (tested: non-diluted supernatant)”. The MFI was approximately 6 MFI in assay [2] and not below 80 MFI in assay [3].

B2: anti-CD19×anti-CD3 (VH5/VL3) (SEQ ID NO.:194) (bispecific antibody)
chain: DIQLTQSPASLAVSLGQRATISCKASQSVDYDGDSYLNWYQQIPGQPPKLLIYDASNLVSGIPPRFSGSGSGTDFTLNIHPVEKVDAATYHCQQSTEDPWTFGGGTKLEIKGGGGSGGGGSGGGGSQVQLQQSGAELVRPGSSVKISCKASGYAFSSYWMNWVKQRPGQGLEWIGQIWPGDGDTNYNGKFKGKATLTADESSSTAYMQLSSLASEDSAVYFCARRETTTVGRYYYAMDYWGQGTTVTVSSGGGGSDVQLVQSGAEVKKPGASVKVSCKASGYTFTRYTMHWVRQAPGQGLEWIGYINPSRGYTNYADSVKGRFTITTDKSTSTAYMELSSLRSEDTATYYCARYYDDHYCLDYWGQGTTVTVSSGEGTSTGSGGSGGSGGADDIVLTQSPATLSLSPGERATLTCRASSSVSYMNWYQQKPGKAPKRWIYDTSKVASGVPARFSGSGSGTDYSLTINSLEAEDAATYYCQQWSSNPLTFGGGTKVEIK
notes: As m4: bispecific single chain, His-tagged; also called pEF anti-CD19×anti-CD3 (VH5/VL3)
In assay [3], B2 displayed an MFI not below 80 MFI. For the same molecule, in assay [4], the MFI was not below 90 MFI and the “fold over the negative control (secondary antibody only, MFI ca. 3.5)” value is approximately 25 fold.

B3: anti-CD19×anti-CD3 (VH2/VL3) (SEQ ID NO.:182) (bispecific antibody)
chain: DIQLTQSPASLAVSLGQRATISCKASQSVDYDGDSYLNWYQQIPGQPPKLLIYDASNLVSGIPPRFSGSGSGTDFTLNIHPVEKVDAATYHCQQSTEDPWTFGGGTKLEIKGGGGSGGGGSGGGGSQVQLQQSGAELVRPGSSVKISCKASGYAFSSYWMNWVKQRPGQGLEWIGQIWPGDGDTNYNGKFKGKATLTADESSSTAYMQLSSLASEDSAVYFCARRETTTVGRYYYAMDYWGQGTTVTVSSGGGGSDVQLVQSGAEVKKPGASVKVSCKASGYTATRYTMHWVRQAPGQGLEWIGYINPSRGYTNYAQKLQGRVTMTTDTSTSTAYMELSSLRSEDTATYYCARYYDDHYCLDYWGQGTTVTVSSGEGTSTGSGGSGGSGGADDIVLTQSPATLSLSPGERATLTCRASSSVSYMNWYQQKPGKAPKRWIYDTSKVASGVPARFSGSGSGTDYSLTINSLEAEDAATYYCQQWSSNPLTFGGGTKVEIK
notes: As m4: bispecific single chain, His-tagged; also called pEF anti-CD19×anti-CD3 (VH2/VL3)
In the case of B3, the binding result in assay [1] is “no binding (tested: non-diluted supernatant)”. The MFI in assay [2] is approximately 6 MFI; in assay [3], not below 80 MFI.

B4: anti-CD19×anti-CD3 (VH5/VL2) (SEQ ID NO.:192) (bispecific antibody)
chain: DIQLTQSPASLAVSLGQRATISCKASQSVDYDGDSYLNWYQQIPGQPPKLLIYDASNLVSGIPPRFSGSGSGTDFTLNIHPVEKVDAATYHCQQSTEDPWTFGGGTKLEIKGGGGSGGGGSGGGGSQVQLQQSGAELVRPGSSVKISCKASGYAFSSYWMNWVKQRPGQGLEWIGQIWPGDGDTNYNGKFKGKATLTADESSSTAYMQLSSLASEDSAVYFCARRETTTVGRYYYAMDYWGQGTTVTVSSGGGGSDVQLVQSGAEVKKPGASVKVSCKASGYTFTRYTMHWVRQAPGQGLEWIGYINPSRGYTNYADSVKGRFTITTDKSTSTAYMELSSLRSEDTATYYCARYYDDHYCLDYWGQGTTVTVSSGEGTSTGSGGSGGSGGADDIVLTQSPATLSLSPGERATLSCRASQSVSYMNWYQQKPGKAPKRWIYDTSKVASGVPARFSGSGSGTDYSLTINSLEAEDAATYYCQQWSSNPLTFGGGTKVEIK
notes: As m4: bispecific single chain, His-tagged; also called pEF anti-CD19×anti-CD3 (VH5/VL2); anti-CD3 (VH5/VK2)
B4 showed an MFI in assay [3] not below 80 MFI. Further, in assay [4], the MFI was not below 90 MFI and the “fold over the negative control (secondary antibody only, MFI ca. 3.5)” value was approximately 25 fold.

B5: anti-CD19×anti-CD3 (VH2/VL1) (SEQ ID NO.:178) (bispecific antibody)
chain: DIQLTQSPASLAVSLGQRATISCKASQSVDYDGDSYLNWYQQIPGQPPKLLIYDASNLVSGIPPRFSGSGSGTDFTLNIHPVEKVDAATYHCQQSTEDPWTFGGGTKLEIKGGGGSGGGGSGGGGSQVQLQQSGAELVRPGSSVKISCKASGYAFSSYWMNWVKQRPGQGLEWIGQIWPGDGDTNYNGKFKGKATLTADESSSTAYMQLSSLASEDSAVYFCARRETTTVGRYYYAMDYWGQGTTVTVSSGGGGSDVQLVQSGAEVKKPGASVKVSCKASGYTATRYTMHWVRQAPGQGLEWIGYINPSRGYTNYAQKLQGRVTMTTDTSTSTAYMELSSLRSEDTATYYCARYYDDHYCLDYWGQGTTVTVSSGEGTSTGSGGSGGSGGADDIQMTQSPSSLSASVGDRVTITCRASQSVSYMNWYQQKPGKAPKRWIYDTSKVASGVPARFSGSGSGTDYSLTINSLEAEDAATYYCQQWSSNPLTFGGGTKVEIK
notes: also called pEF anti-CD19×anti-CD3 (VH2/VL1)
Consider B5, for which the binding result in assay [1] is recorded as “no binding (tested: non-diluted supernatant)”. The MFI was approximately 6 MFI in assay [2] and not below 80 MFI in assay [3].

B6: anti-CD19×anti-CD3 (VH3/VL3) (SEQ ID NO.:188) (bispecific antibody)
chain: DIQLTQSPASLAVSLGQRATISCKASQSVDYDGDSYLNWYQQIPGQPPKLLIYDASNLVSGIPPRFSGSGSGTDFTLNIHPVEKVDAATYHCQQSTEDPWTFGGGTKLEIKGGGGSGGGGSGGGGSQVQLQQSGAELVRPGSSVKISCKASGYAFSSYWMNWVKQRPGQGLEWIGQIWPGDGDTNYNGKFKGKATLTADESSSTAYMQLSSLASEDSAVYFCARRETTTVGRYYYAMDYWGQGTTVTVSSGGGGSDVQLVQSGAEVKKPGASVKVSCKASGYTATRYTMHWVRQAPGQGLEWIGYINPSRGYTNYAQKLQGRVTMTTDTSTSTAYLQMNSLKTEDTAVYYCARYYDDHYCLDYWGQGTTVTVSSGEGTSTGSGGSGGSGGADDIVLTQSPATLSLSPGERATLTCRASSSVSYMNWYQQKPGKAPKRWIYDTSKVASGVPARFSGSGSGTDYSLTINSLEAEDAATYYCQQWSSNPLTFGGGTKVEIK
notes: As m4: bispecific single chain, His-tagged; also called pEF anti-CD19×anti-CD3 (VH3/VL3)
Turning to B6, in assay [1], the binding result is “no binding (tested: non-diluted supernatant)”. For the same molecule, the values for the MFI in assay [2] and in assay [3] were approximately 6 MFI and not below 80 MFI, respectively.

B7: anti-CD19×anti-CD3 (VH3/VL2) (SEQ ID NO.:186) (bispecific antibody)
chain: DIQLTQSPASLAVSLGQRATISCKASQSVDYDGDSYLNWYQQIPGQPPKLLIYDASNLVSGIPPRFSGSGSGTDFTLNIHPVEKVDAATYHCQQSTEDPWTFGGGTKLEIKGGGGSGGGGSGGGGSQVQLQQSGAELVRPGSSVKISCKASGYAFSSYWMNWVKQRPGQGLEWIGQIWPGDGDTNYNGKFKGKATLTADESSSTAYMQLSSLASEDSAVYFCARRETTTVGRYYYAMDYWGQGTTVTVSSGGGGSDVQLVQSGAEVKKPGASVKVSCKASGYTATRYTMHWVRQAPGQGLEWIGYINPSRGYTNYAQKLQGRVTMTTDTSTSTAYLQMNSLKTEDTAVYYCARYYDDHYCLDYWGQGTTVTVSSGEGTSTGSGGSGGSGGADDIVLTQSPATLSLSPGERATLSCRASQSVSYMNWYQQKPGKAPKRWIYDTSKVASGVPARFSGSGSGTDYSLTINSLEAEDAATYYCQQWSSNPLTFGGGTKVEIK
notes: As m4: bispecific single chain, His-tagged; also called pEF anti-CD19×anti-CD3 (VH3/VL2)
B7: in assay [1], the binding result was “no binding (tested: non-diluted supernatant)”. Moreover, the results for the MFI in assay [2] and in assay [3] were approximately 6 MFI and not below 80 MFI, respectively.
